This note sets out measurements from patent publication US20140308287A1 (SEA LANE BIOTECHNOLOGIES, published 2014).

In the assay the target is T1, human ErbB3-Fc (R&D Systems) (human, UniProt P21860 20-643).
T1 construct: Bought protein; also called wild-type ErbB3-Fc fusion; immobilized ErbB3; not shown: Fc part of the bought fusion protein; not described
Description: ELISA on ErbB3-Fc, soluble monovalent Sab (Example 42).

B1: 2995-A01 (other)
VH: EVQLLESGGGLVQPGGSLRLSCAASGFTFSSYWMHWVRQAPGKGLEWVAAISSSGTYTYYADSVKGRFTISRDNSKNTLYLQMNSLRAEDTAVYYCAKDNFILLNSWFDYWGQGTLVTVSS
light: QPVLHQPPAMSSALGTTIRLTCTLRNDHDIGVYSVYWYQQRPGHPPRFLLRYFSQSDKSQGPQVPPRFSGSKDVARNRGYLSISELQPEDEAMYYCAMGARSSVTHVFGSGTQLTVLSQPKATPSVTLFPPSSEELQANKATLVCLMNDFYPGILTVTWKADGTPITQGVEMTTPSKQSNNKYAASSYLSLTPEQWRSRRSYSCQVMHEGSTVEKTVAPAECS
By EC50 is commonly meant the concentration giving half of the maximal effect. For B1, the EC50 is 0.071 nM.

B2: 2995-B01 (other)
VH: EVQLLESGGGLVQPGGSLRLSCAASGFTFSDYAMHWVRQAPGKGLEWVALISSGGRYKYYADSVKGRFTISRDNSKNTLYLQMNSLRAEDTAVYYCAKDNFILLNSWFDYWGQGTLVTVSS
light: QPVLHQPPAMSSALGTTIRLTCTLRNDHDIGVYSVYWYQQRPGHPPRFLLRYFSQSDKSQGPQVPPRFSGSKDVARNRGYLSISELQPEDEAMYYCAMGARSSVTHVFGSGTQLTVLSQPKATPSVTLFPPSSEELQANKATLVCLMNDFYPGILTVTWKADGTPITQGVEMTTPSKQSNNKYAASSYLSLTPEQWRSRRSYSCQVMHEGSTVEKTVAPAECS
Regarding B2, the EC50 was found to be 0.046 nM.

B3: 2995-A12 (other)
VH: EVQLLESGGGLVQPGGSLRLSCAASGFTFSDYWMNWVRQAPGKGLEWVANISGGGGYIYYADSVKGRFTISRDNSKNTLYLQMNSLRAEDTAVYYCAKDNFILLNSWFDYWGQGTLVTVSS
surrogate light: QPVLHQPPAMSSALGTTIRLTCTLRNDHDIGVYSVYWYQQRPGHPPRFLLRYFSQSDKSQGPQVPPRFSGSKDVARNRGYLSISELQPEDEAMYYCAMGARSSVTHVFGSGTQLTVLSQPKATPSVTLFPPSSEELQANKATLVCLMNDFYPGILTVTWKADGTPITQGVEMTTPSKQSNNKYAASSYLSLTPEQWRSRRSYSCQVMHEGSTVEKTVAPAECS
As for B3, the EC50 came to 0.01 nM.

B4: 2995-C02 (other)
VH: EVQLLESGGGLVQPGGSLRLSCAASGFTFSNYWMNWVRQAPGKGLEWVANISSGGSYTYYADSVKGRFTISRDNSKNTLYLQMNSLRAEDTAVYYCAKDNFILLNSWFDYWGQGTLVTVSS
surrogate light: QPVLHQPPAMSSALGTTIRLTCTLRNDHDIGVYSVYWYQQRPGHPPRFLLRYFSQSDKSQGPQVPPRFSGSKDVARNRGYLSISELQPEDEAMYYCAMGARSSVTHVFGSGTQLTVLSQPKATPSVTLFPPSSEELQANKATLVCLMNDFYPGILTVTWKADGTPITQGVEMTTPSKQSNNKYAASSYLSLTPEQWRSRRSYSCQVMHEGSTVEKTVAPAECS
notes: copies: 1 + 1
The molecule B4 returned an EC50 of 0.028 nM.

B5: 2995-A09 (other)
VH: EVQLLESGGGLVQPGGSLRLSCAASGFTFSSYWMHWVRQAPGKGLEWVAGISYGGTYTYYADSVKGRFTISRDNSKNTLYLQMNSLRAEDTAVYYCAKDNFILLNSWFDYWGQGTLVTVSS
light: QPVLHQPPAMSSALGTTIRLTCTLRNDHDIGVYSVYWYQQRPGHPPRFLLRYFSQSDKSQGPQVPPRFSGSKDVARNRGYLSISELQPEDEAMYYCAMGARSSVTHVFGSGTQLTVLSQPKATPSVTLFPPSSEELQANKATLVCLMNDFYPGILTVTWKADGTPITQGVEMTTPSKQSNNKYAASSYLSLTPEQWRSRRSYSCQVMHEGSTVEKTVAPAECS
For the molecule B5, a half-maximal response (EC50) required 0.045 nM.

B6: 2995-B06 (other)
VH: EVQLLESGGGLVQPGGSLRLSCAASGFTFSNYGMHWVRQAPGKGLEWVALISSGGAYTYYADSVKGRFTISRDNSKNTLYLQMNSLRAEDTAVYYCAKDNFILLNSWFDYWGQGTLVTVSS
light: QPVLHQPPAMSSALGTTIRLTCTLRNDHDIGVYSVYWYQQRPGHPPRFLLRYFSQSDKSQGPQVPPRFSGSKDVARNRGYLSISELQPEDEAMYYCAMGARSSVTHVFGSGTQLTVLSQPKATPSVTLFPPSSEELQANKATLVCLMNDFYPGILTVTWKADGTPITQGVEMTTPSKQSNNKYAASSYLSLTPEQWRSRRSYSCQVMHEGSTVEKTVAPAECS
In turn, B6 came in with an EC50 of 0.01 nM.

B7: 2995-A07 (other)
VH: EVQLLESGGGLVQPGGSLRLSCAASGFTFSSYWMHWVRQAPGKGLEWVAGISSGGAYTYYADSVKGRFTISRDNSKNTLYLQMNSLRAEDTAVYYCAKDNFILLNSWFDYWGQGTLVTVSS
light: QPVLHQPPAMSSALGTTIRLTCTLRNDHDIGVYSVYWYQQRPGHPPRFLLRYFSQSDKSQGPQVPPRFSGSKDVARNRGYLSISELQPEDEAMYYCAMGARSSVTHVFGSGTQLTVLSQPKATPSVTLFPPSSEELQANKATLVCLMNDFYPGILTVTWKADGTPITQGVEMTTPSKQSNNKYAASSYLSLTPEQWRSRRSYSCQVMHEGSTVEKTVAPAECS
B7 showed an EC50 of 0.022 nM.

B8: 2995-A08 (other)
VH: EVQLLESGGGLVQPGGSLRLSCAASGFTFSSYWMHWVRQAPGKGLEWVAGISNGGSIIYYADSVKGRFTISRDNSKNTLYLQMNSLRAEDTAVYYCAKDNFILLNSWFDYWGQGTLVTVSS
light: QPVLHQPPAMSSALGTTIRLTCTLRNDHDIGVYSVYWYQQRPGHPPRFLLRYFSQSDKSQGPQVPPRFSGSKDVARNRGYLSISELQPEDEAMYYCAMGARSSVTHVFGSGTQLTVLSQPKATPSVTLFPPSSEELQANKATLVCLMNDFYPGILTVTWKADGTPITQGVEMTTPSKQSNNKYAASSYLSLTPEQWRSRRSYSCQVMHEGSTVEKTVAPAECS
In turn, B8 came in with an EC50 of 0.02 nM.

B9: 2995-A06 (other)
VH: EVQLLESGGGLVQPGGSLRLSCAASGFTFSSYWMHWVRQAPGKGLEWVAGISDGGAYTYYADSVKGRFTISRDNSKNTLYLQMNSLRAEDTAVYYCAKDNFILLNSWFDYWGQGTLVTVSS
surrogate light: QPVLHQPPAMSSALGTTIRLTCTLRNDHDIGVYSVYWYQQRPGHPPRFLLRYFSQSDKSQGPQVPPRFSGSKDVARNRGYLSISELQPEDEAMYYCAMGARSSVTHVFGSGTQLTVLSQPKATPSVTLFPPSSEELQANKATLVCLMNDFYPGILTVTWKADGTPITQGVEMTTPSKQSNNKYAASSYLSLTPEQWRSRRSYSCQVMHEGSTVEKTVAPAECS
notes: copies: 1 + 1
The molecule B9 had an EC50 of 0.032 nM. Compared with the last molecule, the EC50 is about 1.6-fold higher.

B10: 2995-B10 (other)
VH: EVQLLESGGGLVQPGGSLRLSCAASGFTFSSYWMHWVRQAPGKGLEWVAAISAGSGYIYYADSVKGRFTISRDNSKNTLYLQMNSLRAEDTAVYYCAKDNFILLNSWFDYWGQGTLVTVSS
surrogate light: QPVLHQPPAMSSALGTTIRLTCTLRNDHDIGVYSVYWYQQRPGHPPRFLLRYFSQSDKSQGPQVPPRFSGSKDVARNRGYLSISELQPEDEAMYYCAMGARSSVTHVFGSGTQLTVLSQPKATPSVTLFPPSSEELQANKATLVCLMNDFYPGILTVTWKADGTPITQGVEMTTPSKQSNNKYAASSYLSLTPEQWRSRRSYSCQVMHEGSTVEKTVAPAECS
notes: copies: 1 + 1
B10: it took 0.032 nM to reach a half-maximal effect (EC50).

B11: 2995-B04 (other)
VH: EVQLLESGGGLVQPGGSLRLSCAASGFTFSNYWMHWVRQAPGKGLEWVALISNNGTYTYYADSVKGRFTISRDNSKNTLYLQMNSLRAEDTAVYYCAKDNFILLNSWFDYWGQGTLVTVSS
light: QPVLHQPPAMSSALGTTIRLTCTLRNDHDIGVYSVYWYQQRPGHPPRFLLRYFSQSDKSQGPQVPPRFSGSKDVARNRGYLSISELQPEDEAMYYCAMGARSSVTHVFGSGTQLTVLSQPKATPSVTLFPPSSEELQANKATLVCLMNDFYPGILTVTWKADGTPITQGVEMTTPSKQSNNKYAASSYLSLTPEQWRSRRSYSCQVMHEGSTVEKTVAPAECS
In the case of B11, the response was half-maximal at 0.021 nM (EC50).

B12: 2995-A02 (other)
VH: EVQLLESGGGLVQPGGSLRLSCAASGFTFSSYWMNWVRQAPGKGLEWVALISNGGGIKYYADSVKGRFTISRDNSKNTLYLQMNSLRAEDTAVYYCAKDNFILLNSWFDYWGQGTLVTVSS
light: QPVLHQPPAMSSALGTTIRLTCTLRNDHDIGVYSVYWYQQRPGHPPRFLLRYFSQSDKSQGPQVPPRFSGSKDVARNRGYLSISELQPEDEAMYYCAMGARSSVTHVFGSGTQLTVLSQPKATPSVTLFPPSSEELQANKATLVCLMNDFYPGILTVTWKADGTPITQGVEMTTPSKQSNNKYAASSYLSLTPEQWRSRRSYSCQVMHEGSTVEKTVAPAECS
notes: copies: 1 + 1
In turn, B12 gave an EC50 of 0.018 nM.

B13: 2995-B02 (other)
VH: EVQLLESGGGLVQPGGSLRLSCAASGFTFSDYWMHWVRQAPGKGLEWVAVISSNGRYTYYADSVKGRFTISRDNSKNTLYLQMNSLRAEDTAVYYCAKDNFILLNSWFDYWGQGTLVTVSS
light: QPVLHQPPAMSSALGTTIRLTCTLRNDHDIGVYSVYWYQQRPGHPPRFLLRYFSQSDKSQGPQVPPRFSGSKDVARNRGYLSISELQPEDEAMYYCAMGARSSVTHVFGSGTQLTVLSQPKATPSVTLFPPSSEELQANKATLVCLMNDFYPGILTVTWKADGTPITQGVEMTTPSKQSNNKYAASSYLSLTPEQWRSRRSYSCQVMHEGSTVEKTVAPAECS
notes: copies: 1 + 1
In turn, B13 yielded a concentration for a half-maximal effect (EC50) of 0.016 nM.

B14: 2995-A05 (other)
VH: EVQLLESGGGLVQPGGSLRLSCAASGFTFSNYWMHWVRQAPGKGLEWVAAISNGSSYTYYADSVKGRFTISRDNSKNTLYLQMNSLRAEDTAVYYCAKDNFILLNSWFDYWGQGTLVTVSS
light: QPVLHQPPAMSSALGTTIRLTCTLRNDHDIGVYSVYWYQQRPGHPPRFLLRYFSQSDKSQGPQVPPRFSGSKDVARNRGYLSISELQPEDEAMYYCAMGARSSVTHVFGSGTQLTVLSQPKATPSVTLFPPSSEELQANKATLVCLMNDFYPGILTVTWKADGTPITQGVEMTTPSKQSNNKYAASSYLSLTPEQWRSRRSYSCQVMHEGSTVEKTVAPAECS
In turn, B14 displayed an EC50 of 0.022 nM.

B15: 2995-C03 (other)
VH: EVQLLESGGGLVQPGGSLRLSCAASGFTFSSYWMHWVRQAPGKGLEWVAGISGGGRYTYYADSVKGRFTISRDNSKNTLYLQMNSLRAEDTAVYYCAKDNFILLNSWFDYWGQGTLVTVSS
surrogate light: QPVLHQPPAMSSALGTTIRLTCTLRNDHDIGVYSVYWYQQRPGHPPRFLLRYFSQSDKSQGPQVPPRFSGSKDVARNRGYLSISELQPEDEAMYYCAMGARSSVTHVFGSGTQLTVLSQPKATPSVTLFPPSSEELQANKATLVCLMNDFYPGILTVTWKADGTPITQGVEMTTPSKQSNNKYAASSYLSLTPEQWRSRRSYSCQVMHEGSTVEKTVAPAECS
notes: copies: 1 + 1
With B15, it took 0.027 nM to reach a half-maximal effect (EC50).
